Legend:
Assay in all cases: flow cytometry, alanine-scan library in HEK-293T, with cytochalasin B
[1] = molecular target: T1, hsGLUT4 M112A (human, UniProt P14672 1-509)
T1 sequence: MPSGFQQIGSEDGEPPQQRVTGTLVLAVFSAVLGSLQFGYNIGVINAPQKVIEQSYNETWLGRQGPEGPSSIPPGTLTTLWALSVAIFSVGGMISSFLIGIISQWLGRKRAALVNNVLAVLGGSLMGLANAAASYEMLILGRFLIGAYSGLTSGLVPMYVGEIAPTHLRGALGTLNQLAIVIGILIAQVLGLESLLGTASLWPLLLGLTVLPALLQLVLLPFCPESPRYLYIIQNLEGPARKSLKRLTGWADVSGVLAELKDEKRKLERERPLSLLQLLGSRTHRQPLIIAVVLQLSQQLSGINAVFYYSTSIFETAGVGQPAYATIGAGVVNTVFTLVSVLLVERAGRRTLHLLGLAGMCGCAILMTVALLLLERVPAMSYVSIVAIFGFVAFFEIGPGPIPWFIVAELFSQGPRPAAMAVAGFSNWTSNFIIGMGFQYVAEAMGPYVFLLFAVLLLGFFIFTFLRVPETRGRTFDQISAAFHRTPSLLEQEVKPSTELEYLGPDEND
In short: (§1)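 HEK-293T cells expressing individual GLUT4 alanine mutants were stained 48 h post-transfection with anti-GLUT4 scFv MAbs (2 μg/ml), then biotinylated secondary and streptavidin-PerCP, and read by high-throughput flow cytometry. Where used, cytochalasin B (10 uM final) was given for 30 min before and during primary antibody staining.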

[2] = molecular target: T2, hsGLUT4 L260A (human, UniProt P14672 1-509)
T2 sequence: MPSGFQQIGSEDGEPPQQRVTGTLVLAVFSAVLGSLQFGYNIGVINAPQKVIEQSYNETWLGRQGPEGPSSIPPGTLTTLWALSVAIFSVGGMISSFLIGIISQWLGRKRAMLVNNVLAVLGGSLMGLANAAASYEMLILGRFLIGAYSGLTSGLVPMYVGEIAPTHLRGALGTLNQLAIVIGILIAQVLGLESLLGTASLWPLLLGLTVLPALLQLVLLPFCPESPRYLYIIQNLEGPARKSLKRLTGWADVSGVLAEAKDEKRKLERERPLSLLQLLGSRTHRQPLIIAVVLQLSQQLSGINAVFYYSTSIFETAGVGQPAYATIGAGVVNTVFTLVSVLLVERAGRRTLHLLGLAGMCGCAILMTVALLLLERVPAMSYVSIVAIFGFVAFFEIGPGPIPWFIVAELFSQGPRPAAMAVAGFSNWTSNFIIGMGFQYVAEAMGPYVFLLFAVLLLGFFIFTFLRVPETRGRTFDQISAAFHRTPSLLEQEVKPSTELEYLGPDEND
In short: as §1

[3] = molecular target: T3, hsGLUT4 V306A (human, UniProt P14672 1-509)
T3 sequence: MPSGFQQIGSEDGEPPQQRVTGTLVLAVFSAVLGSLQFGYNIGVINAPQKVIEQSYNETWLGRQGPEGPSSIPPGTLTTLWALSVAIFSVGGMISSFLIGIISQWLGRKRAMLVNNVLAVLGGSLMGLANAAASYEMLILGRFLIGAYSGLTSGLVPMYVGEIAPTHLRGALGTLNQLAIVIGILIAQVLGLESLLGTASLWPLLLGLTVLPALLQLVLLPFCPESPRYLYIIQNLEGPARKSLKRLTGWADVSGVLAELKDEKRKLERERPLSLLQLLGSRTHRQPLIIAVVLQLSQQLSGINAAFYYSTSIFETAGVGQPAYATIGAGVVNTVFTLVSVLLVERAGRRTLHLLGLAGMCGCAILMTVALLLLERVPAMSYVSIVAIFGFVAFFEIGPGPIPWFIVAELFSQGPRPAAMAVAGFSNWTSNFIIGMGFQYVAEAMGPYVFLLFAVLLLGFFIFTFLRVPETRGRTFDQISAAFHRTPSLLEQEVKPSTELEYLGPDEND
In short: as §1

[4] = molecular target: T4, hsGLUT4 G356A (human, UniProt P14672 1-509)
T4 sequence: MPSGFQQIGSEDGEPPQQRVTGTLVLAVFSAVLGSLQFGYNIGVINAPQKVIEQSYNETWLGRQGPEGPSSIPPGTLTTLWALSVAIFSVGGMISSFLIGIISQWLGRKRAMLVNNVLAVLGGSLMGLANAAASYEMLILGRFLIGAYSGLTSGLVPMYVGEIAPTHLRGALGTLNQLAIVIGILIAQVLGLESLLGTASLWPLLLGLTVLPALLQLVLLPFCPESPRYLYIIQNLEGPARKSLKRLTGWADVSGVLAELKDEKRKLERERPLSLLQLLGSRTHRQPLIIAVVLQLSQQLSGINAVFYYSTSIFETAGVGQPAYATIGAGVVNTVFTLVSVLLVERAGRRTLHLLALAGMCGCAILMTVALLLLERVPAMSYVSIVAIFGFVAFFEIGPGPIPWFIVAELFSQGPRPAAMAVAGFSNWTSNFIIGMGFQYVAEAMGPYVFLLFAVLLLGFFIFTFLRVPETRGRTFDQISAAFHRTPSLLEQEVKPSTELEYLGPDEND
In short: as §1

% of binding to wild type GLUT4 [1]: 23% | % of binding to wild type GLUT4 [2]: 42% | % of binding to wild type GLUT4 [3]: 29% | % of binding to wild type GLUT4 [4]: 72%
B1: AB102 (Fc fusion)
scFv: ALTQPSSVSANLGGTVKITCSGGGSYGYGWYQQKSPGSAPVTVIYSNDQRPSDIPSRFSGSKSGSTATLTITGVRAEDEAIYYCGSTDSDYVGIFGAGTTLTVLGQSSRSSGGGGSSGGGGSAVTLDESGGGLQTPGGTLSLVCKASGFDFSSYATIWVRQAPGKGLEWVAGISGTGTGSSTGYAPAVKGRATISRDNGQSTVRLQLNNLRAEDTGSYFCAKSTGYGDSWIYPDSIDAWGHGTEVIVSS
notes: also called MAb AB102; not shown: Fc fragment of human IgG1, cloned in frame with the scFv

Source: US20210238276A1 (INTEGRAL MOLECULAR, published 2021)
